Data from PMC2727048.

T1: HBV core protein of virion-derived mature capsids (Mat-C) (Hepatitis B virus), P03146
T1 chain: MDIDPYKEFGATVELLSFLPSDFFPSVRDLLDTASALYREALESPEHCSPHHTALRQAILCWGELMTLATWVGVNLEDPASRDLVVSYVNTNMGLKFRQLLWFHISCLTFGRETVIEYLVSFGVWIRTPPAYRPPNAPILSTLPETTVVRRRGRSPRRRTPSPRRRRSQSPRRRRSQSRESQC

T2: HBV core protein of E. coli-derived "recombinant" capsids (rC) (Hepatitis B virus), P03146
T2 chain: T1 chain

B1: HBV core protein of virion-derived mature capsids (Mat-C), P03146 1-183 (natural protein)
chain: T1 chain
B2: HBV core protein of E. coli-derived "recombinant" capsids (rC), P03146 1-183 (natural protein)
chain: T1 chain

Key:
Conditions in all cases: remark: other sources report otherwise
[1] = biological target: T1, HBV core protein of virion-derived …; experiment: Nycodenz gradient ultracentrifugation; 50 ng P-Mat-C after transport reaction with 4×10^6 digitonin-permeabilized HuH-7 cells and rabbit reticulocyte lysate, lysate of the cells on the gradient; controls with WGA, cells treated with RNase A
[2] = biological target: T1, HBV core protein of virion-derived …; experiment: Nycodenz gradient ultracentrifugation
[3] = biological target: T2, HBV core protein of E. coli-derived …; experiment: Nycodenz gradient ultracentrifugation

| Binder | percent of 32P core proteins in the particle fractions [1] | percent of the radioactivity in the four major (capsid) fractions [2] | percent of the radioactivity in the three major (capsid) fractions [3] |
| --- | --- | --- | --- |
| B1 | 99% | 98% |  |
| B2 |  |  | 91% |
